The record followed here is the DeepSol protein solubility set.

A short description of this data set: soluble on expression in E. coli; label from the status in PepcDB or PDB records.
Regarding “MAHHHHHHMEREKHENMLMAIARDFNSVDDLIETFLTFLENKTDYFHVMLNDKDVETLSEKYDGAILKNLLNNNNCGFKAHSREQLLIKSFRKHQINYIMRKQPYIIENEEIKNKYLTSCDELKKIKYMPTTKDMNKEKQENSTKVNSDVHSLNVTQENHISIWNGGKTDKYYWNQALKEINLEMPFNEEIKPNDVNVQITNTNIKIYHCGVLKLEGMFYEEVDKQECVWSIEDKKNIIIYLEKKRENWWPCVIKGDTEIDTKNIESKKNLTDFDEKTQGQIRKFLLEQRMKNEGIPTPEDLRKQNIINNVLSSKGEPFGR”, the “soluble on expression in E. coli” value is recorded as “not soluble”.
Regarding “MSKSNQKIASIEQLSNNEGIISALAFDQRGALKRMMAKHQTEEPTVAQIEQLKVLVAEELTQYASSILLDPEYGLPASDARNKDCGLLLAYEKTGYDVNAKGRLPDCLVEWSAKRLKEQGANAVKFLLYYDVDDAEEINIQKKAYIERIGSECVAEDIPFFLEVLTYDDNIPDNGSVEFAKVKPRKVNEAMKLFSEPRFNVDVLKVEVPVNMKYVEGFAEGEVVYTKEEAAQHFKDQDAATHLPYIYLSAGVSAELFQETLKFAHEAGAKFNGVLCGRATWSGAVQVYIEQGEDAAREWLRTTGFKNIDDLNKVLKDTATSWKQRK”, the “soluble on expression in E. coli” value is reported as “soluble”.
With “MSLKPVGLNYFSEKKGLLTDEDLMEDEHYCGMSFRGDEKKSIFGIFDGYGGIGAARETRRTLPNIIQKLIEQGLDSKEILEKGFSEVDEGMNKEEFMDIGCTCTLIYIWEEDNKVYIRSGNVGDSTCFVKKMNKGKPEIITLSQDHKVTSACEQKRMKEAGITLVEGQKRINGVGVARTLANHFVKNLNIGMIGTPYISPAIVLESGDEIILCSDGIWDVITPEKAFEMMENTQVSEAPKVIMEESMKITECRDNVTVIVVKILEGHHHHHH”, the “soluble on expression in E. coli” value is listed as “not soluble”.
For “MAQKILVEQVVKRKAIVVQPKDTVDRVAKILSRNKAGSAVVMEGDEILGVVTERDILDKVVAKGKNPKEVKVEEIMTKNPVKIEYDYDIEDVIELMTEKGVRRVLVTKFGKPIGFVTAADILAALASHNHEEEEEEREEESEVYGICEVCGQYGALYKVYHEGRELWVCETCKDLIEGR” the value was “soluble”; for “GPGSMWVCGEAVLMRALNLLHARVRRCMRFSCRIPPQYCECPCRRMRVCPLRRDVSLIVLLFGLTPTTFSFSATSHDASRTKATRTHTHTHTPLFPARPMGSPLIAVIGPNPAFQKTLALDELRVDEVNRAATVHSYTGGKGTNFCRASACCKESPHFCRTTLHTFVGGKTGERVIDLLHQEGIAVYPVTVPAETRTCITCLDTQNSTMTELIEPSAAVPDDAAKDMDRALLKALEHAGGMAIMGSLPDGSSPDLYTRWTEMAAAAQKPVLIDAVKGIEASLKVPGVHSILKVNMRELNKLTGQSTPESAFEYAMQMWTVRVLAVTDGPRSAYIQERGQPLQVVHIPKVDGVVSPLGAGDTADAIFLAKYIHGTTPVEAFRLALAAASANCLQKEAGVFAQHEMRRIADGITIGSSRPHSSSNTRA”, “not soluble”.
For “MYSEERRRQIASLTAVEGRVNVTELAARFDVTAETIRRDLAVLDREGVVHRVHGGAVANQTFQTAEFSLDTRSRSASGAKNSIAHAALSYLPEAQGGLFLDAGTTTAALAELLAAQPFAKHWSIVTNSLSIALTLANSGLDEIQLLGGSVRAITQAVVGDTALRTLALMRADVAFIGTNALTIDHGLSTADSQEAAIKSAMITNAHKVVVLCDSTKMGTDYLVSFGSISDIDVIITDANAPESFVKALRDRDVEVIIA” the value was “not soluble”.
As to “MAQERPSCAVEPEHVQRLLLSSREAKKSAYCPYSRFPVGAALLTGDGRIFSGCNIENACYPLGVCAERTAIQKAISEGYKDFRAIAISSDLQEEFISPCGACRQVMREFGTDWAVYMTKPDGTFVVRTVQELLPASFGPEDLQKIQ”, the “soluble on expression in E. coli” value is listed as “soluble”.
Consider “MSERPVHEYIKELSEALVQLSDKVLQNFNEALYAVTHKDVQSARKIRIVDDEIDQTEVKLEERCLAFLALQQPVARDLRTMVTIIKINDDLERIGDLAVHIIERMPALGHEVMERYQFEKMGNLSATMVRKAIEAFVTRDRLLADNVCAMDEDVDAMHRMIFKKVADAMKACNTDTEQLLAVLSVSRYIERMADHATRIAREVIYLVTGEIVRHSDDTFEKLIQSLKD”, for which the “soluble on expression in E. coli” value is reported as “soluble”.
For “MFVRSLFLALLLATIVAADIDFSTCARMDVPILKKAAQGLCITSCSMQNCGTGSCKKRSGRPTCVCYRCANGGGDIPLGALIKRG” the value was “not soluble”; for “MHHHHHHAMNHETFLKRAVTLACEGVNAGIGGPFGAVIVKDGAIIAEGQNNVTTSNDPTAHAEVTAIRKACKVLGAYQLDDCILYTSCEPCPMCLGAIYWARPKAVFYAAEHTDAAEAGFDDSFIYKEIDKPAEERTIPFYQVTLTEHLSPFQAWRNFANKKEY”, “soluble”.
For “MSKSSYYAPHGGHPAQTELLTDRAMFTEAYAVIPKGVMRDIVTSHLPFWDNMRMWVIARPLSGFAETFSQYIVELAPNGGSDKPEQDPNAEAVLFVVEGELSLTLQGQVHAMQPGGYAFIPPGADYKVRNTTGQHTRFHWIRKHYQKVDGVPLPEAFVTNEQDIQPLVMPDTEGRWSTTRFVDMSDMRHDMHVNIVNFEPGGVIPFAETHVMEHGLYVLEGKAVYRLNQDWVEVEAGDFMWLRAFCPQACYSGGPGRFRYLLYKDVNRHMRLTLNAPHLEHHHHHH” the value was “soluble”.
Consider “MLLTNHAKERIAKRLAKKRKIYKIYSTLFSFLKNSIRIEVEDTILFTDGNKTLVATKLDGELLDLGDIVKRVKDIEESYECVFWDKKIAKITKPIKFLQEIPPGKYYFYINKEKKVLYIGTHEPLLALTFRPAKRWERALFYFSLEHHHHHH”, for which the “soluble on expression in E. coli” value was “not soluble”.
For “MEGLSMDQVVIFKQIFDKVRNDLNYQWFYSELKRHNVSHYIYYLATENVHIVLKNDNTVLLKGLKNIVSVKFSKDRHLIETTSNKLKSREITFQEYRRNLAKAGVFRWVTNIHEQKRYYYTFDNSLLFTESIQKTTQILPRLEHHHHHH” the value was “soluble”; for “MRIHRRIKIKQKSVRIFIFDTKHRINDTKRQEDDEPHGLSALHFASRRPTCCACWMRRKKESTTTKVCVQDDCTTCSCTSASRCSRCSPCCSGCCSCTS”, “not soluble”.
The value for “MDGSVVRHEERLNVGKERVESGRMRIRKHVVHDTETVEVPVEREEIHVERVPLDEKVAADDAKLSEGTQDIVTHEERPVVNKETVGVEKIKIGKEAVQDTETVSGKVAKEQIDIDNAKHTKLEHHHHHH” was “not soluble”; that for “MGSDKIHHHHHHMINQVYRLVSERQFEEANIEEALTEDVVVVRPTYLSICAADQRYYTGSRGKEMLSKKLPMALIHEGVGQVTYDATGEFEIGTKVVMIPNTPTEDDPVIAENYRRSSLFRSSGYDGLMQENVFMRRDRVVRLPENMDMEVAAYSELISVAFHAITRFKQKANANQSVFGVWGDGNLGFITCLLLKTIYPESKVIIFGKTQYKLDFFSFVDEAHLVDEIPEGLVIDNAFECAGGKGSQYAVEQIIDLIKPEGTISLLGVSENPIEFNSRMVLEKGLTVFGSSRSGKEDFQNTVNFLSENERAVEYLSSLIGQRKVVRNLQDIIEAFETDLRNPFGKTVMEWKV” was “not soluble”; that for “MRGSHHHHHHGMASMTGGQQMGRDLYDDDDKDHPFTMADQAPFDTDVNTLTRFVMEEGRKARGTGELTQLLNSLCTAVKAISSAVRKAGIAHLYGIAGSTNVTGDQVKKLDVLSNDLVMNMLKSSFATCVLVSEEDKHAIIVEPEKRGKYVVCFDPLDGSSNIDCLVSVGTIFGIYRKKSTDEPSEKDALQPGRNLVAAGYALYGSATMLVLAMDCGVNCFMLDPAIGEFILVDKDVKIKKKGKIYSLNEGYAKDFDPAVTEYIQRKKFPPDNSAPYGARYVGSMVADVHRTLVYGGIFLYPANKKSPNGKLRLLYECNPMAYVMEKAGGMATTGKEAVLDVIPTDIHQRAPVILGSPDDVLEFLKVYEKHSAQ” was “soluble”.
For “MSTNITFHASALTRSERTELRNQRGLTIWLTGLSASGKSTLAVELEHQLVRDRRVHAYRLDGDNIRFGLNKDLGFSEADRNENIRRIAEVAKLFADSNSIAITSFISPYRKDRDTARQLHEVATPGEETGLPFVEVYVDVPVEVAEQRDPKGLYKKAREGVIKEFTGISAPYEAPANPEVHVKNYELPVQDAVKQIIDYLDTKGYLPAKKE” the value was “soluble”.
Take “MRADVKPVTVKLVDSQATMETRSLFAFMQEQRRHSIMFGHQHETTQGLTITRTDGTQSDTFNAVGDFAAVYGWDTLSIVAPKAEGDIVAQVKKAYARGGIITVSSHFDNPKTDTQKGVWPVGTSWDQTPAVVDSLPGGAYNPVLNGYLDQVAEWANNLKDEQGRLIPVIFRLYHENTGSWFWWGDKQSTPEQYKQLFRYSVEYLRDVKGVRNFLYAYSPNNFWDVTEANYLERYPGDEWVDVLGFDTYGPVADNADWFRNVVANAALVARMAEARGKIPVISGIGIRAPDIEAGLYDNQWYRKLISGLKADPDAREIAFLLVWRNAPQGVPGPNGTQVPHYWVPANRPENINNGTLEDFQAFYADEFTAFNRDIEQVYQRPTLIVK”: the “soluble on expression in E. coli” value is “soluble”.
The value for “MVIGQKVLLARIPKMGDNYSTYLLDIEGTVCPISFVKETLFPYFTNKVPQLVQQDTRDSPVSNILSQFHIDNKEQLQAHILELVAKDVKDPILKQLQGYVWAHGYESGQIKAPVYADAIDFIKRKKRVFIYSSGSVKAQKLLFGYVQDPNAPAHDSLDLNSYIDGYFDINTSGKKTETQSYANILRDIGAKASEVLFLSDNPLELDAAAGVGIATGLASRPGNAPVPDGQKYQVYKNFETL” was “not soluble”.
Take “MTDNITDEAIIDKAQELHDKAYDKAVYERDEANGVHANQNNPEVLIFNDGPTDDEIREKLSWVVDRFRETLKPFPRDFDPLIDKIKAIEAAFGQEEDSFGDPDLGMIETSANYMAQWEGALSTNFNEKFLGPMPIIAANHGKLASYLRDHAEKMKSIYESGRQDALNIAEKGVEAIDAINDSNGKDLMIALAVLIAAGTLAGPALGVASAPLAVQLANAAVIAGSVLGGPFVEKGEEVPLGGDTVEEVMNNVRDALDASAKRIFEEEGYLLDALKKSEEEVFPQTSGNTDDHTALLPQQPKVFTATGEELTAGLVQFGSEDGTDGGGGDRGSYVGDDPPDNFEGSVFVPPEKKTATG”: the “soluble on expression in E. coli” value is “not soluble”.
The value for “LAEGEEQIVARDGNSWLVDGVTPITDVMRSFAIEEFPQQQNYETIAGFMMYMLRKIPRRTDSVVYAGYKFEVVDIDNYKVDQLLVSRVE” was “not soluble”; that for “GAHVSRVEKLPKDYQIVYKEIQKYLFKVGPVELNEGIGLLSEILGFFEEGAAAGKGVLDVTGTDVAAFCDALIGDSKTYADLYQESIQQHVDKAMKNMKD” was “soluble”; that for “MELTTKLVGTCSALDRLYQSGSAKCLFPRNSRAGLEAVLLNTAGGVTGGDRLSFSAQVRAGTRLSVTTQACERAYRAQPGETGQVRNHLSVATGARMNWLPQETILYDGSSLDRRLSVEIEPGASLLMVEPLVFGRIEMGESLNDARFCDRIEITRRGRPIFLDATRLQGGIAAHLAKPFIANGAGAMALLVYLAENAEAVLPRLRQMLPECAGASLIGEDLLVMRVLAADSFLLRQSLLPALRLLNNNEIPRCWTILEHHHHHH” was “not soluble”.
